What was measured:
Experiment in all cases: alanine scan, flow cytometry, HEK293-T;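 further: antibody binding to each alanine-substituted CD33 mutant expressed transiently in HEK293-T, read as fluorescence minus background, mean of duplicates, relative to wild-type CD33 set as 100%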
human CD33 C212A = human CD33 C212A (human, UniProt P20138 18-364)
Method: (§1) An alanine scan on human CD33 was performed to the determine the residues on CD33 that are involved in binding to the antibodies investigated. […] Briefly, a mutation library of CD33 was created by high-throughput, site-directed mutagenesis. Each residue was individually mutated to alanine, with alanine codons mutated to serine. The mutant library was arrayed in 384-well microplates and transiently transfected into HEK293-T. Following transfection, cells were incubated with the indicated antibodies (IgG or Fab) at concentrations pre-determined using an independent immunofluorescence titration curve on wild type CD33. […] Binding of each antibody to each mutant clone was determined in duplicates. For each point, background fluorescence was subtracted from the raw data, which were then normalized to antibody reactivity with wild type CD33.
(§2) Critical residues for antibody binding (outlined in dark grey) were residues whose mutations led to a binding of the test Abs of less than 20%. Additional secondary residues (outlined in light grey) were identified that led to a binding of the test Abs of between 20 and 40% as compared to the wild type CD33.

human CD33 N53A = human CD33 N53A (human, UniProt P20138 18-364)
Method: as §1, §2

human CD33 G58A = human CD33 G58A (human, UniProt P20138 18-364)
Method: as §1, §2

human CD33 I66A = human CD33 I66A (human, UniProt P20138 18-364)
human CD33 I66A, sequence (P20138 18-364 I66A limits assumed): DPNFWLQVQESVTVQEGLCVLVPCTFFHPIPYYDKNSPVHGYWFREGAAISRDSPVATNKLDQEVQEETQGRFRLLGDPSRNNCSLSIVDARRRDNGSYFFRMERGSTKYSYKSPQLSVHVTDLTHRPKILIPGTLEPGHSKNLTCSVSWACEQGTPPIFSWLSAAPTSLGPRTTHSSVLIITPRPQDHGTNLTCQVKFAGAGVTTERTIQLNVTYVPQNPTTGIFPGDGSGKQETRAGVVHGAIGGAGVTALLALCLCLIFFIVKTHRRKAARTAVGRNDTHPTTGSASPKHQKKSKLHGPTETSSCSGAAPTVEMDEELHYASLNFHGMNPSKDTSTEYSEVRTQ
Method: as §1, §2

human CD33 I67A = human CD33 I67A (human, UniProt P20138 18-364)
human CD33 I67A, sequence (P20138 18-364 I67A limits assumed): as the sequence (P20138 18-364 I66A limits assumed) above, with A49I, I50A counted along it
Method: as §1, §2

human CD33 A74S = human CD33 A74S (human, UniProt P20138 18-364)
human CD33 A74S, sequence (P20138 18-364 A74S limits assumed): as the sequence (P20138 18-364 I66A limits assumed) above, with A49I, A57S counted along it
Method: as §1, §2

human CD33 L78A = human CD33 L78A (human, UniProt P20138 18-364)
human CD33 L78A, sequence (P20138 18-364 L78A limits assumed): as the sequence (P20138 18-364 I66A limits assumed) above, with A49I, L61A counted along it
Method: as §1, §2

human CD33 Q80A = human CD33 Q80A (human, UniProt P20138 18-364)
human CD33 Q80A, sequence (P20138 18-364 Q80A limits assumed): as the sequence (P20138 18-364 I66A limits assumed) above, with A49I, Q63A counted along it
Method: as §1, §2

human CD33 V82A = human CD33 V82A (human, UniProt P20138 18-364)
human CD33 V82A, sequence (P20138 18-364 V82A limits assumed): as the sequence (P20138 18-364 I66A limits assumed) above, with A49I, V65A counted along it
Method: as §1, §2

human CD33 Q87A = human CD33 Q87A (human, UniProt P20138 18-364)
human CD33 Q87A, sequence (P20138 18-364 Q87A limits assumed): as the sequence (P20138 18-364 I66A limits assumed) above, with A49I, Q70A counted along it
Method: as §1, §2

human CD33 F90A = human CD33 F90A (human, UniProt P20138 18-364)
human CD33 F90A, sequence (P20138 18-364 F90A limits assumed): as the sequence (P20138 18-364 I66A limits assumed) above, with A49I, F73A counted along it
Method: as §1, §2

human CD33 G94A = human CD33 G94A (human, UniProt P20138 18-364)
human CD33 G94A, sequence (P20138 18-364 G94A limits assumed): as the sequence (P20138 18-364 I66A limits assumed) above, with A49I, G77A counted along it
Method: as §1, §2

human CD33 R98A = human CD33 R98A (human, UniProt P20138 18-364)
human CD33 R98A, sequence (P20138 18-364 R98A limits assumed): as the sequence (P20138 18-364 I66A limits assumed) above, with A49I, R81A counted along it
Method: as §1, §2

human CD33 N100A = human CD33 N100A (human, UniProt P20138 18-364)
human CD33 N100A, sequence (P20138 18-364 N100A limits assumed): as the sequence (P20138 18-364 I66A limits assumed) above, with A49I, N83A counted along it
Method: as §1, §2

human CD33 A108S = human CD33 A108S (human, UniProt P20138 18-364)
human CD33 A108S, sequence (P20138 18-364 A108S limits assumed): as the sequence (P20138 18-364 I66A limits assumed) above, with A49I, A91S counted along it
Method: as §1, §2

human CD33 I47A = human CD33 I47A (human, UniProt P20138 18-364)
human CD33 I47A, sequence (P20138 18-364 I47A limits assumed): as the sequence (P20138 18-364 I66A limits assumed) above, with I30A, A49I counted along it
Method: as §1, §2

human CD33 S115A = human CD33 S115A (human, UniProt P20138 18-364)
human CD33 S115A, sequence (P20138 18-364 S115A limits assumed): as the sequence (P20138 18-364 I66A limits assumed) above, with A49I, S98A counted along it
Method: as §1, §2

human CD33 F117A = human CD33 F117A (human, UniProt P20138 18-364)
human CD33 F117A, sequence (P20138 18-364 F117A limits assumed): as the sequence (P20138 18-364 I66A limits assumed) above, with A49I, F100A counted along it
Method: as §1, §2

human CD33 F118A = human CD33 F118A (human, UniProt P20138 18-364)
human CD33 F118A, sequence (P20138 18-364 F118A limits assumed): as the sequence (P20138 18-364 I66A limits assumed) above, with A49I, F101A counted along it
Method: as §1, §2

human CD33 M120A = human CD33 M120A (human, UniProt P20138 18-364)
human CD33 M120A, sequence (P20138 18-364 M120A limits assumed): as the sequence (P20138 18-364 I66A limits assumed) above, with A49I, M103A counted along it
Method: as §1, §2

human CD33 V138A = target: T1, human CD33 V138A (human, UniProt P20138 18-364)
T1 construct: alanine scan clone, transfected HEK293-T
T1 sequence (P20138 18-364 V138A limits assumed): as the sequence (P20138 18-364 I66A limits assumed) above, with A49I, V121A counted along it
Method: as §1, §2

human CD33 L141A = target: T2, human CD33 L141A (human, UniProt P20138 18-364)
T2 construct: alanine scan clone, transfected HEK293-T
T2 sequence (P20138 18-364 L141A limits assumed): as the sequence (P20138 18-364 I66A limits assumed) above, with A49I, L124A counted along it
Method: as §1, §2

human CD33 I147A = target: T3, human CD33 I147A (human, UniProt P20138 18-364)
T3 construct: alanine scan clone, transfected HEK293-T
T3 sequence (P20138 18-364 I147A limits assumed): as the sequence (P20138 18-364 I66A limits assumed) above, with A49I, I130A counted along it
Method: as §1, §2

human CD33 L148A = target: T4, human CD33 L148A (human, UniProt P20138 18-364)
T4 construct: alanine scan clone, transfected HEK293-T
T4 sequence (P20138 18-364 L148A limits assumed): as the sequence (P20138 18-364 I66A limits assumed) above, with A49I, L131A counted along it
Method: as §1, §2

human CD33 E154A = target: T5, human CD33 E154A (human, UniProt P20138 18-364)
T5 construct: alanine scan clone, transfected HEK293-T
T5 sequence (P20138 18-364 E154A limits assumed): as the sequence (P20138 18-364 I66A limits assumed) above, with A49I, E137A counted along it
Method: as §1, §2

human CD33 S158A = target: T6, human CD33 S158A (human, UniProt P20138 18-364)
T6 construct: alanine scan clone, transfected HEK293-T
T6 sequence (P20138 18-364 S158A limits assumed): as the sequence (P20138 18-364 I66A limits assumed) above, with A49I, S141A counted along it
Method: as §1, §2

human CD33 N160A = target: T7, human CD33 N160A (human, UniProt P20138 18-364)
T7 construct: alanine scan clone, transfected HEK293-T
T7 sequence (P20138 18-364 N160A limits assumed): as the sequence (P20138 18-364 I66A limits assumed) above, with A49I, N143A counted along it
Method: as §1, §2

human CD33 T162A = target: T8, human CD33 T162A (human, UniProt P20138 18-364)
T8 construct: alanine scan clone, transfected HEK293-T
T8 sequence (P20138 18-364 T162A limits assumed): as the sequence (P20138 18-364 I66A limits assumed) above, with A49I, T145A counted along it
Method: as §1, §2

human CD33 C163A = target: T9, human CD33 C163A (human, UniProt P20138 18-364)
T9 construct: alanine scan clone, transfected HEK293-T
T9 sequence (P20138 18-364 C163A limits assumed): as the sequence (P20138 18-364 I66A limits assumed) above, with A49I, C146A counted along it
Method: as §1, §2

human CD33 S166A = target: T10, human CD33 S166A (human, UniProt P20138 18-364)
T10 construct: alanine scan clone, transfected HEK293-T
T10 sequence (P20138 18-364 S166A limits assumed): as the sequence (P20138 18-364 I66A limits assumed) above, with A49I, S149A counted along it
Method: as §1, §2

human CD33 P184A = target: T11, human CD33 P184A (human, UniProt P20138 18-364)
T11 construct: alanine scan clone, transfected HEK293-T
T11 sequence (P20138 18-364 P184A limits assumed): as the sequence (P20138 18-364 I66A limits assumed) above, with A49I, P167A counted along it
Method: as §1, §2

human CD33 T185A = target: T12, human CD33 T185A (human, UniProt P20138 18-364)
T12 construct: alanine scan clone, transfected HEK293-T
T12 sequence (P20138 18-364 T185A limits assumed): as the sequence (P20138 18-364 I66A limits assumed) above, with A49I, T168A counted along it
Method: as §1, §2

human CD33 G188A = target: T13, human CD33 G188A (human, UniProt P20138 18-364)
T13 construct: alanine scan clone, transfected HEK293-T
T13 sequence (P20138 18-364 G188A limits assumed): as the sequence (P20138 18-364 I66A limits assumed) above, with A49I, G171A counted along it
Method: as §1, §2

human CD33 T191A = target: T14, human CD33 T191A (human, UniProt P20138 18-364)
T14 construct: alanine scan clone, transfected HEK293-T
T14 sequence (P20138 18-364 T191A limits assumed): as the sequence (P20138 18-364 I66A limits assumed) above, with A49I, T174A counted along it
Method: as §1, §2

human CD33 H193A = target: T15, human CD33 H193A (human, UniProt P20138 18-364)
T15 construct: alanine scan clone, transfected HEK293-T
T15 sequence (P20138 18-364 H193A limits assumed): as the sequence (P20138 18-364 I66A limits assumed) above, with A49I, H176A counted along it
Method: as §1, §2

human CD33 T125A = target: T16, human CD33 T125A (human, UniProt P20138 18-364)
T16 construct: alanine scan clone, transfected HEK293-T
T16 sequence (P20138 18-364 T125A limits assumed): as the sequence (P20138 18-364 I66A limits assumed) above, with A49I, T108A counted along it
Method: as §1, §2

human CD33 C212A, sequence (P20138 18-364 C212A limits assumed): as the sequence (P20138 18-364 I66A limits assumed) above, with A49I, C195A counted along it
human CD33 N53A, sequence (P20138 18-364 N53A limits assumed): as the sequence (P20138 18-364 I66A limits assumed) above, with N36A, A49I counted along it
human CD33 G58A, sequence (P20138 18-364 G58A limits assumed): as the sequence (P20138 18-364 I66A limits assumed) above, with G41A, A49I counted along it

Binder	Mean % WT Binding (human CD33 C212A) [%]	Mean % WT Binding (human CD33 N53A) [% WT binding]	Mean % WT Binding (human CD33 G58A) [% WT binding]	Mean % WT Binding (human CD33 I66A) [% WT binding]	Mean % WT Binding (human CD33 I67A) [% WT binding]	Mean % WT Binding (human CD33 A74S) [% WT binding]	Mean % WT Binding (human CD33 L78A) [% WT binding]	Mean % WT Binding (human CD33 Q80A) [% WT binding]	Mean % WT Binding (human CD33 V82A) [% WT binding]	Mean % WT Binding (human CD33 Q87A) [% WT binding]	Mean % WT Binding (human CD33 F90A) [% WT binding]	Mean % WT Binding (human CD33 G94A) [% WT binding]	Mean % WT Binding (human CD33 R98A) [% WT binding]	Mean % WT Binding (human CD33 N100A) [% WT binding]	Mean % WT Binding (human CD33 A108S) [% WT binding]	Mean % WT Binding (human CD33 I47A) [% WT binding]	Mean % WT Binding (human CD33 S115A) [% WT binding]	Mean % WT Binding (human CD33 F117A) [% WT binding]	Mean % WT Binding (human CD33 F118A) [% WT binding]	Mean % WT Binding (human CD33 M120A) [% WT binding]	further results
Refmab #4 (antibody, V domains shown, In the alanine scan antibodies were used as IgG or Fab) VH: QVQLVQSGAEVKKPGESVKVSCKASGYTFTNYGMNWVKQAPGQGLEWMGWINTYTGEPTYADKFQGRVTMTTDTSTSTAYMEIRNLGGDDTAVYYCARWSWSDGYYVYFDYWGQGTSVTVSS VL: DIVMTQSPDSLTVSLGERTTINCKSSQSVLDSSTNKNSLAWYQQKPGQPPKLLLSWASTRESGIPDRFSGSGSGTDFTLTIDSPQPEDSATYYCQQSAHFPITFGQGTRLEIK	11	–	–	–	–	–	–	–	–	–	–	–	–	–	–	–	–	–	–	–	–
Refmab #6 (antibody, V domains shown, Full-length format is human IgG1 Fc silent (PG-LALA); also made as Fab; The alanine scan used IgG or Fab) VH: QVQLQQPGAEVVKPGASVKMSCKASGYTFTSYYIHWIKQTPGQGLEWVGVIYPGNDDISYNQKFQGKATLTADKSSTTAYMQLSSLTSEDSAVYYCAREVRLRYFDVWGQGTTVTVSS VL: EIVLTQSPGSLAVSPGERVTMSCKSSQSVFFSSSQKNYLAWYQQIPGQSPRLLIYWASTRESGVPDRFTGSGSGTDFTLTISSVQPEDLAIYYCHQYLSSRTFGQGTKLEIK	–	96.8	73.9	93.7	108	94.9	110	102	110	96.9	71.1	93.1	94.2	83.9	78.4	117	75.8	90.3	4.9	76.3	–
Refmab #6 (antibody, V domains shown, The alanine scan used IgG or Fab) VH: QVQLQQPGAEVVKPGASVKMSCKASGYTFTSYYIHWIKQTPGQGLEWVGVIYPGNDDISYNQKFQGKATLTADKSSTTAYMQLSSLTSEDSAVYYCAREVRLRYFDVWGQGTTVTVSS VL: EIVLTQSPGSLAVSPGERVTMSCKSSQSVFFSSSQKNYLAWYQQIPGQSPRLLIYWASTRESGVPDRFTGSGSGTDFTLTISSVQPEDLAIYYCHQYLSSRTFGQGTKLEIK	–	–	–	–	–	–	–	–	–	–	–	–	–	–	–	–	–	–	–	–	Mean % WT Binding (human CD33 V138A): 65.4 % WT binding; Mean % WT Binding (human CD33 L141A): 97.5 % WT binding; Mean % WT Binding (human CD33 I147A): 65.4 % WT binding; Mean % WT Binding (human CD33 L148A): 93.3 % WT binding; Mean % WT Binding (human CD33 E154A): 86.2 % WT binding; Mean % WT Binding (human CD33 S158A): 95.2 % WT binding; Mean % WT Binding (human CD33 N160A): 106 % WT binding; Mean % WT Binding (human CD33 T162A): 87.2 % WT binding; Mean % WT Binding (human CD33 C163A): 73.9 % WT binding; Mean % WT Binding (human CD33 S166A): 108 % WT binding; Mean % WT Binding (human CD33 P184A): 92.2 % WT binding; Mean % WT Binding (human CD33 T185A): 117 % WT binding; Mean % WT Binding (human CD33 G188A): 100 % WT binding; Mean % WT Binding (human CD33 T191A): 88.5 % WT binding; Mean % WT Binding (human CD33 H193A): 100 % WT binding; Mean % WT Binding (human CD33 T125A): 112 % WT binding
Refmab #3 (antibody, V domains shown, In the alanine scan antibodies were used as IgG or Fab) VH: QVQLVQSGAEVKKPGSSVKVSCKASGYTFTDYNMHWVRQAPGQGLEWIGYIYPYNGGTGYNQKFKSKATITADESTNTAYMELSSLRSEDTAVYYCARGRPAMDYWGQGTLVTVSS VL: DIQMTQSPSSLSASVGDRVTITCRASESVDNYGISFMNWFQQKPGKAPKLLIYAASNQGSGVPSRFSGSGSGTDFTLTISSLQPDDFATYYCQQSKEVPWTFGQGTKVEIK	57.3	–	–	–	–	–	–	–	–	–	–	–	–	–	–	–	–	–	–	–	–
Refmab #5 (antibody, V domains shown, Full-length format is human IgG1 Fc silent (PG-LALA); also made as Fab; The alanine scan used IgG or Fab) VH: QVQLVQSGAEVKKPGASVKVSCKASGYTFTNYDINWVRQAPGQGLEWIGWIYPGDGSTKYNEKFKAKATLTADTSTSTAYMELRSLRSDDTAVYYCASGYEDAMDYWGQGTTVTVSS VL: DIQMTQSPSSLSASVGDRVTINCKASQDINSYLSWFQQKPGKAPKTLIYRANRLVDGVPSRFSGSGSGQDYTLTISSLQPEDFATYYCLQYDEFPLTFGGGTKVEIK	–	97.6	112	105	157	99	99.3	151	122	137	123	92.2	134	165	105	117	74.6	113	11.1	73.2	–
Refmab #5 (antibody, V domains shown, The alanine scan used IgG or Fab) VH: QVQLVQSGAEVKKPGASVKVSCKASGYTFTNYDINWVRQAPGQGLEWIGWIYPGDGSTKYNEKFKAKATLTADTSTSTAYMELRSLRSDDTAVYYCASGYEDAMDYWGQGTTVTVSS VL: DIQMTQSPSSLSASVGDRVTINCKASQDINSYLSWFQQKPGKAPKTLIYRANRLVDGVPSRFSGSGSGQDYTLTISSLQPEDFATYYCLQYDEFPLTFGGGTKVEIK	–	–	–	–	–	–	–	–	–	–	–	–	–	–	–	–	–	–	–	–	Mean % WT Binding (human CD33 V138A): 101 % WT binding; Mean % WT Binding (human CD33 L141A): 94.5 % WT binding; Mean % WT Binding (human CD33 I147A): 77.2 % WT binding; Mean % WT Binding (human CD33 L148A): 113 % WT binding; Mean % WT Binding (human CD33 E154A): 112 % WT binding; Mean % WT Binding (human CD33 S158A): 99.2 % WT binding; Mean % WT Binding (human CD33 N160A): 110 % WT binding; Mean % WT Binding (human CD33 T162A): 92.4 % WT binding; Mean % WT Binding (human CD33 C163A): 62 % WT binding; Mean % WT Binding (human CD33 S166A): 114 % WT binding; Mean % WT Binding (human CD33 P184A): 107 % WT binding; Mean % WT Binding (human CD33 T185A): 94 % WT binding; Mean % WT Binding (human CD33 G188A): 114 % WT binding; Mean % WT Binding (human CD33 T191A): 115 % WT binding; Mean % WT Binding (human CD33 H193A): 119 % WT binding; Mean % WT Binding (human CD33 T125A): 56.7 % WT binding
